Molecular target: the molecule itself
Assay: SEC-MALS

B1: human PAPD1 (residues 44-538), wild type (enzyme, UniProt Q9NVV4 44-538, looked up)
chain: EQPSGSVETGFEDKIPKRRFSEMQNERREQAQRTVLIHCPEKISENKFLKYLSQFGPINNHFFYESFGLYAVVEFCQKESIGSLQNGTHTPSTAMETAIPFRSRFFNLKLKNQTSERSRVRSSNQLPRSNKQLFELLCYAESIDDQLNTLLKEFQLTEENTKLRYLTCSLIEDMAAAYFPDCIVRPFGSSVNTFGKLGCDLDMFLDLDETRNLSAHKISGNFLMEFQVKNVPSERIATQKILSVLGECLDHFGPGCVGVQKILNARCPLVRFSHQASGFQCDLTTNNRIALTSSELLYIYGALDSRVRALVFSVRCWARAHSLTSSIPGAWITNFSLTMMVIFFLQRRSPPILPTLDSLKTLADAEDKCVIEGNNCTFVRDLSRIKPSQNTETLELLLKEFFEYFGNFAFDKNSINIRQGREQNKPDSSPLYIQNPFETSLNISKNVSQSQLQKFVDLARESAWILQQEDTDRPSISSNRPWGLVSLLLPSAPNR
  stoichiometry N: 2

Reference: PMC3057501 (Molecular cell, 2011)
